Where “and” joins values, the source holds several entries; their conditions need not be identical. Equal values may be shown once.

The assay has as its target T1, GIPR-Rluc8 (human), P48546.
T1 chain: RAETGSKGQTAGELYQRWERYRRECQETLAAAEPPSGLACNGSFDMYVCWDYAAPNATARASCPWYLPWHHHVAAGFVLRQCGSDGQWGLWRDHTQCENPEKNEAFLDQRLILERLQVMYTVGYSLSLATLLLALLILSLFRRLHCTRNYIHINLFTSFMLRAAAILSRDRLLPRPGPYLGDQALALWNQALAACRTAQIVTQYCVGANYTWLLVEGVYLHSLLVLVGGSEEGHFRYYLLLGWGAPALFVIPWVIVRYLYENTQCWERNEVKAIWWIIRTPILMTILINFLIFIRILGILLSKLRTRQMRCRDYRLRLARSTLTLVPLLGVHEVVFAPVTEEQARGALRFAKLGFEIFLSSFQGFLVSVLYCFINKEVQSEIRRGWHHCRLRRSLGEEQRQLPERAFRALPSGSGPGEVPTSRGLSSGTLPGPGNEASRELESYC
As to the kind of experiment: FRET or BRET. The following applies: remark: other sources report otherwise.

B1: Venus-β-arrestin 1, P49407 1-418 (natural protein)
chain: MGDKGTRVFKKASPNGKLTVYLGKRDFVDHIDLVDPVDGVVLVDPEYLKERRVYVTLTCAFRYGREDLDVLGLTFRKDLFVANVQSFPPAPEDKKPLTRLQERLIKKLGEHAYPFTFEIPPNLPCSVTLQPGPEDTGKACGVDYEVKAFCAENLEEKIHKRNSVRLVIRKVQYAPERPGPQPTAETTRQFLMSDKPLHLEASLDKEIYYHGEPISVNVHVTNNTNKTVKKIKISVRQYADICLFNTAQYKCPVAMEEADDTVAPSSTFCKVYTLTPFLANNREKRGLALDGKLKHEDTNLASSTLLREGANREILGIIVSYKVKVKLVVSRGGLLGDLASSDVAVELPFTLMHPKPKEEPPHREVPENETPVDTNLIELDTNDDDIVFEDFARQRLKGMKDDKEEEEDGTGSPQLNNR
As to B1, the pEC50 of GIP (1-42) for β-arr1 recruitment (BRET) is 7.7 and 7.94 and 7.67.
